Target: T1, human PD-1 (programmed cell death receptor 1) (human, UniProt Q15116 25-170, 15N-labeled in the AIDA-NMR assay; covalently labeled with a fluorophore in the MST assay)
T1 construct: Programmed cell death receptor 1 (PD-1, CD279), human; In the cell-based ICB assays hPD-1 stands on Jurkat effector cells; also called hPD-1; CD279
Test: MST; hPD-1 covalently labeled with a fluorophore, incubated with increasing concentrations of unlabeled hPD-L1 or mPD-L1; two independent dilution series, KD model
Details: both partners purified

T1 sequence (Q15116 25-170): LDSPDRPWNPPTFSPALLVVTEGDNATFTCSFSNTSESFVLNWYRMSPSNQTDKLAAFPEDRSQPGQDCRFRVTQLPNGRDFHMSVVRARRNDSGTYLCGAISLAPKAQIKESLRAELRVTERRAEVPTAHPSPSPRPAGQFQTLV

B1: mouse PD-L1 (ligand)
chain: FTITAPKDLYVVEYGSNVTMECRFPVERELDLLALVVYWEKEDEQVIQFVAGEEDLKPQHSNFRGRASLPKDQLLKGNAALQITDVKLQDAGVYCCIISYGGADYKRITLKVNAPY
modifications: fluorescently labeled in the MST assay with antibodies
notes: PD-L1, mouse; In the h/mICB assay mPD-L1 is endogenous on IFN-gamma-treated B16-F10/TCRAct cells; also called mPD-L1
With B1 the Kd was 3.2 ± 0.2 µM.
